Earlier results in patent US8232228B2 (priority 2002, dated 2012).

B1: HarpinEa: Hypersensitive response elicitor protein from Erwinia amylovora, amino acid sequence SEQ. ID. No. 3 (protein)
chain: MSLNTSGLGASTMQISIGGAGGNNGLLGTSRQNAGLGGNSALGLGGGNQNDTVNQLAGLLTGMMMMMSMMGGGGLMGGGLGGGLGNGLGGSGGLGEGLSNALNDMLGGSLNTLGSKGGNNTTSTTNSPLDQALGINSTSQNDDSTSGTDSTSDSSDPMQQLLKMFSEIMQSLFGDGQDGTQGSSSGGKQPTEGEQNAYKKGVTDALSGLMGNGLSQLLGNGGLGGGQGGNAGTGLDGSSLGGKGLQNLSGPVDYQQLGNAVGTGIGMKAGIQALNDIGTHRHSSTRSFVNKGDRAMAKEIGQFMDQYPEVFGKPQYQKGPGQEVKTDDKSWAKALSKPDDDGMTPASMEQFNKAKGMIKRPMAGDTGNGNLQARGAGGSSLGIDAMMAGDAINNMALGKLGAA
modifications: Erwinia amylovora - harpinEa
heat stable at 100° C.: at least 10 minutes
